For 1 molecule, Kd results are on record in paper PMC3303121 (Nature, 2012).

In this test the target is A2A adenosine receptor A2AAR N154Q (residues 1-316) (Homo sapiens, UniProt P29274, N154Q). Put plainly: SPR.
Chain of A2A adenosine receptor A2AAR N154Q (residues 1-316) (P29274 1-316 N154Q): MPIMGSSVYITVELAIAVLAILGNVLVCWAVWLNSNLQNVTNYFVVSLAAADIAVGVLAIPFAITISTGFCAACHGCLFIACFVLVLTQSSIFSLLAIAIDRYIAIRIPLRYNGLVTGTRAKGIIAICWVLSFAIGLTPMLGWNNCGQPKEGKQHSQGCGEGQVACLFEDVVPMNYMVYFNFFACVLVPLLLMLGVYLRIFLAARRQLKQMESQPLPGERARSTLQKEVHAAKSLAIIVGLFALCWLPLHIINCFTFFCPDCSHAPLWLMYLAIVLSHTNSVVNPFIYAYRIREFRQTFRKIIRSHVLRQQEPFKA

B1: Fab2838, Fab fragment of mouse monoclonal antibody IgG2838 (Fab, V domains shown)
VH: EVQLQQSGAELVKPGSSVKISCKTSGDSFTAYNMNWVKQSHGKSLEWIGNINPYYGSTRYNQKFKGKATLTVDKSSSTAYIQLNSLTSEDSAVYYCAREGNYYDGGSVRYFDYWGQGTTLTVSS
VL: DIVMTQSPASLSASVGDTVTITCRASEFIYSSLTWYQQKQGGSPQLLVYAATNLADAVPSRFSGSGSGTQFSLKINRLQPEDFGTYYCQHFYGSTWAFGGGTKLEIK
Consider B1, for which binding was characterised by a dissociation constant (Kd) of 4.4 nM.
